# In publication doi:10.1101/2023.10.23.563594 (bioRxiv, 2023):
# Numbering of substitutions follows the chain as printed. Names may count otherwise.
# T1: full-length unlabelled RING1B-PCGF4 catalytic dimer (human, UniProt Q99496-1;P35226)
# T1 sequence 1: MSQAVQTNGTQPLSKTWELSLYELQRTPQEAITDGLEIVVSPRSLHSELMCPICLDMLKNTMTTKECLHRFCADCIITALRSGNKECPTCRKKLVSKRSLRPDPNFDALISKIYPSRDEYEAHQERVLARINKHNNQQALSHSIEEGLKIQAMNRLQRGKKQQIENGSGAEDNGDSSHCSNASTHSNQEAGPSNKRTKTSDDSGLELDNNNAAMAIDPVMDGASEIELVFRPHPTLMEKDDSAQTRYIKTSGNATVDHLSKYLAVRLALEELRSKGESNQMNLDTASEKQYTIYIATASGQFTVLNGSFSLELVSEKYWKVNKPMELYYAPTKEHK
# T1 sequence 2: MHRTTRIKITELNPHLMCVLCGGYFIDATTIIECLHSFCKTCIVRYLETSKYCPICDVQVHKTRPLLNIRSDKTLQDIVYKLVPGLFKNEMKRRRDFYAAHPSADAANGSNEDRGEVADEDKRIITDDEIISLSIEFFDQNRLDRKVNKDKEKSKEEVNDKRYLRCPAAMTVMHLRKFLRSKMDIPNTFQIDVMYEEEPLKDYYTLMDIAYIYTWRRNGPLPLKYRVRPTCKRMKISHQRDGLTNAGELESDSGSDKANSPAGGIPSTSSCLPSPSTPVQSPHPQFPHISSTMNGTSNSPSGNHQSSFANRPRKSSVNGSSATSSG
# B1: E3 ubiquitin ligase subunit RING1B, full-length, co-expressed in the vPRC1.4 complex (natural protein)
# chain: T1 sequence 1
# B2: Polycomb group ring-finger subunit PCGF4, full-length, co-expressed in the vPRC1.4 complex (natural protein)
# chain: T1 sequence 2
# B3: RING1 and YY1-binding protein (RYBP), full-length wild type, co-expressed in the vPRC1.4 complex (natural protein)
# chain: MTMGDKKSPTRPKRQAKPAADEGFWDCSVCTFRNSAEAFKCSICDVRKGTSTRKPRINSQLVAQQVAQQYATPPPPKKEKKEKVEKQDKEKPEKDKEISPSVTKKNTNKKTKPKSDILKDPPSEANSIQSANATTKTSETNHTSRPRLKNVDRSTAQQLAVTVGNVTVIITDFKEKTRSSSTSSSTVTSSAGSEQQNQSSSGSESTDKGSSRSSTPKGDMSAVNDESF
# B4: RYBP full-length, 15N- or 13C/15N-labelled, from E. coli (natural protein)
# chain: B3 chain
# modifications: uniform 15N or 13C/15N isotope labelling
# B5: RYBP A63T, co-expressed with RING1B and PCGF4 (natural protein)
# chain: B3 chain with A63T
# B6: RYBP Q69K, co-expressed with RING1B and PCGF4 (natural protein)
# chain: B3 chain with Q69K
# What was measured:
# [1] = molecular target: B3; test: SEC-MALS
# [2] = molecular target: B1; test: SEC-MALS
# [3] = molecular target: B1; test: cross-linking
# [4] = molecular target: B2; test: cross-linking
# [5] = molecular target: T1, full-length unlabelled RING1B-PCGF4 …; test: pull-down
# [6] = molecular target: B1; test: pull-down
# [7] = molecular target: B2; test: pull-down
stoichiometry N [1],binding result [6],binding result [7],Binder,other results
1,,,B1,
1,,,B2,stoichiometry N [2]: 1
,,,B3,binding result [3]: binds; binding result [4]: binds
,,,B4,binding result [5]: binds
,binds,binds,B5,
,binds,binds,B6,
